From the nanobody polyreactivity screen of Harvey et al. (2022)

Assay: yeast display, Sf9 membrane polyspecificity reagent, FACS + sequencing; frameworks hold sequencing errors
Outline: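 A synthetic nanobody library was expressed on Saccharomyces cerevisiae BJ5465 by galactose induction for 36–48 hours. The library was stained for 1 hour at 4 °C with 10% biotinylated, detergent-solubilized Sf9 membrane reagent and enriched with streptavidin microbeads before FACS. Low and high (top ~1%) gates were set on anti-HA fluorescence for expression and streptavidin fluorescence for reagent binding, and each polyreactivity label reflects the gate of origin.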

Sequence | polyreactivity (PSR sort gate)
QVQLVESGGGLVQAVRSLRLSSAASGLTFGRNAMGWYRQAPGKERELVAAISRSGGRTSYADSVKGRFTISRDNAKNTVYLQMNSLKPEDTAVYYCAARSDVYTHDYWGQGTQVTVSS | high polyreactivity
QVQLVESGGGLVQEGGILRLSCAASGRTFTWYAMEWYRQAPGKERELVAAISFSGGSTYYADSVKGRFTISRDNAKNTVYLQMNSLKPEDSAVYYCARASGDAWEGPRLDYWGQGTQVTVSS | low polyreactivity
QVQLVESGGGLVQEGGSHRLSCAASASTFWSYTMGWYRQAPGKERELVAAISPSGGSTSYADSVKGRFTISRDHAKNTVYLQMNSLKPEDTAVYYGAADDRYGSRYSYWGHGTQVTVSS | high polyreactivity
QVQLVESGGGLVQEGGSIRLSCDASGFIFDVYAIGWYRTAAGKERELVDAISSVGSTYYADSVKGRFTISRDNATNTVYLQMNSLKPEDTAVYYCADVRFYTYNYWGQGTQVTVSS | low polyreactivity
QVQLVESGGGLVQEGGSLRFSCAASGSTFHSYAMGWYRQAPGKERELVAAISTSGGTTYYADSVKGRFTISRDNAKNTVYLQMNSLKPEDTAVYYCAARRVTSPFGTDSWGQGTQVTVSS | low polyreactivity
QVQLVESGGGLVQEGGSLRLICAASGRTFGTNAMGWYRQAPAKERELVAGINYSDGSTYYADSVKGRFTITRDNAKNTVYLQMNSMKPEDTAVYYCAADPGWAWWELNYWGQGTQVTVSS | low polyreactivity
QVQLVESGGGLVQEGGSLRLICAASGRTFYINDMGWYRQAPGKEREFVAAITWSGGSTYYADSVKGRFTISRDNAKNTVYLQMNSLKPEDTAVYYCARPYRGSPRYYYWGQGTQVTVSS | high polyreactivity
QVQLVESGGGLVQEGGSLRLICAASGSTFGVNAMGWYRQAPGKERELVAAISSSGYSTYADSVKGRFTISRDNAKNTVYLQMNSLKPEDTAVYYCNKTTLLTVEYDYWGQGTQVTVSS | low polyreactivity
QVQLVESGGGLVQEGGSLRLRCAASGSIFPYNAMGWYRQAPGKERELVAAISSTGGRTYYADSVKGRFTISRDNAKNTVYLQMNSLKPEDTAVYYCAARLYDKPGFYSWGEGTQVTVSS | high polyreactivity
QVQLVESGGGLVQEGGSLRLSCAASGFIFRGNGMGWYRQAPGKERELVAAIDSTDSKNYADSVKGRFTISRDNAKNTVYLQMNSLKPEDTAVYYCAAGVSWYGPYDYLWFYAFDYWGQGTQVTVSS | low polyreactivity
QVQLVESGGGLVQEGGSLRLSCAASGFILVNYAMGWYRQAPGKEREFVAAISGSGTRTYYADSVKGRFTISRDNAKNTVYLQMNSLKPEDTAVYYCAARVGYRKLYYYWGQGTQVTVSS | high polyreactivity
QVQLVESGGGLVQEGGSLRLSCAASGFTFDSNAMGWYRQAPGKERELVAAISTGGSTYYADSVKGRFTISRDNAKNTVYLQMNSLKPEDTAVYYCARDPPYPDTWYGYWGQGTQVTVSS | low polyreactivity
QVQLVESGGGLVQEGGSLRLSCAASGFTFRANAMGWYRQAPGKERELVAVITGSGRTYYSDSVKGRFTISRDNAKNTVYLQMNRLKPEYTAVYYCAARAAYRVSSAGYDSLGQGTQVTVSS | high polyreactivity
QVQLVESGGGLVQEGGSLRLSCAASGFTFRWYAMGWYRQPPRKERELFAVISSGGRTYYADSVKGRFTISRDNAKNTVYLEKNSLKPEDTAVYSCAAEFTDHYPDYWGYPLYDYWGQGTQVTVSS | high polyreactivity
QVQLVESGGGLVQEGGSLRLSCAASGFTIFQYAMGWYRQAPGKERELVATITSAGSTNYADSVKGRFTISLDNAKNTVYLQMNSLIPEDTAVYYCNTKKLPYAEGYWGQGTQVSVSS | low polyreactivity
QVQLVESGGGLVQEGGSLRLSCAASGGTFRWYTMGWYRQAPGKERELVAAISSTGSTYYADSVKGRFTISRDNAKNTVYLQMNSLKPEDTAVYYCNASYNGKGSWDLDYWGQGTQVTVSS | high polyreactivity
QVQLVESGGGLVQEGGSLRLSCAASGGTFWLYTMGWYRQAPGKERELVAAITKSGGSTYYADSVKGRFTISRDNAKNTVYLQMNSLKPEDTAVYDCAARYSVYRDGYYWGQGTQVTVSS | high polyreactivity
QVQLVESGGGLVQEGGSLRLSCAASGGTFYVNDMGWYRQAPGKERELVATITSGDSTNYADSVKGRFTISRDNAKNTVYLQRNCLKPEDTAVYYCNARGDVIVTPPKFSFNYVYWGQGTQVTVSS | low polyreactivity
QVQLVESGGGLVQEGGSLRLSCAASGIIFLENAMGWYRQAPGKERELVAGISSGGNTNYADSVKARFTISRDNAKNTVYLHMNSLKPEDTAVYYCNARCHRAVPGDELGYWGQGTQLTVSS | low polyreactivity
QVQLVESGGGLVQEGGSLRLSCAASGIIFQRNDMGWYRQAPGKERELVANIRDGGITYADSVKGRFTISRDNAKNTVYLQMNSLKPEDTAVYYCARDDTSPGYGDQSSNAAYYYWGQGTQVTVSS | low polyreactivity
QVQLVESGGGLVQEGGSLRLSCAASGIIFSRYAMGWYRPAPGKERELVAAITRSGGDTYYADSVKGRFTISRDNAKNTVYLQMNSLNPEDTAVYYCAAERTWYPWVATGYYWGQGTQVTVSS | low polyreactivity
QVQLVESGGGLVQEGGSLRLSCAASGINFNVNALGWYKQAPGKERELVARITTSGGSTSYADSVKGRFTISRDNAKNTVYLQMNSLKPDDTAVYYCAADRARYYSEYDYWGQGTQVNVSS | low polyreactivity

Sequence | polyreactivity (PSR sort gate)
QVQLVESGGGLVQEGGSLRLSCAASGLISQRNVMGWYRQAPGKERELVARISTSSSGTYYADSVKGRFTISRDNAKNTFYLHMYSLKPEYTAVYYCAVRYRGGAARQIYDYWGQGTQVTVSS | high polyreactivity
QVQLVESGGGLVQEGGSLRLSCAASGRIFSRYVMGWYRQAPGKERELVAAITGSGGSTYYADSVKGRFTISRDNAKNTVYLQMNSLKPEDTADYYCAVVSRANSYRYNYWGQGTQVTVSS | high polyreactivity
QVQLVESGGGLVQEGGSLRLSCAASGRIYARNAMGWYRQAPGKERDLVAAIRNSDGSTYYADSVNGRFTISRDNAKNSVYLQMNSLKPEDTAVYYCNTVPYPAYLARMDYWGQGTQVTVSS | high polyreactivity
QVQLVESGGGLVQEGGSLRLSCAASGRTFAIYTMGCYRQAPGKERELVATNSGSAGNTYYADSVKGRYTISRDNAKNTVYLQMNSLIPEDTAVYYCAARQRKSRQIVLLDYWGQGTQVTVSS | high polyreactivity
QVQLVESGGGLVQEGGSLRLSCAASGRTFWAYAMGWYRQAPGKERELVAAITTSGGSTNYADSVKGRFTISRDNAKNTVYLQMNSLKPEDTADYYCNADPTYHVVNGVAYWGQGTQVTVSS | low polyreactivity
QVQLVESGGGLVQEGGSLRLSCAASGRTFYQYAMGWYRQAPGKERELVAVINGGGSTNYADSVKGRFTISRDNAKNTVYLQMNSLIPEDTAVYYCNADDVFDFDYWGQGTQVTVSS | low polyreactivity
QVQLVESGGGLVQEGGSLRLSCAASGRTLHKNVMGWYRQAPGKERELVAAINTGGRTYYADSVKGRFTISRDNAKHTVYLQMNSLKPEDTAVYYCAKEGHVNPRPTVGGDYWGHGTQVTVSS | low polyreactivity
QVQLVESGGGLVQEGGSLRLSCAASGSIFIANAMGWYRQAPGKERELVARITRGGRTNYADSVKGRFTISRDNAKNTVYLQMNSLKPEDTAVYYCAAVYYVGFPHKYDYWGQGTQVTVSS | low polyreactivity
QVQLVESGGGLVQEGGSLRLSCAASGSIFLQYAMGWYRQAPGKERELVAGISLRGCSTYYADSVKGRFTISRDNAKNTVYVQLNSLKPEDTAVYYCAADVIVTVETHTSGPSFTEYDYWGQGTQVTVSS | low polyreactivity
QVQLVESGGGLVQEGGSLRLSCAASGSIFRYYAMGWYRQAPGKERELVAVITRGGSTYYADSVKGRFTISRDNAKNTVYLQMNSLKPEDTAVYYCAAEDYVIGDSGYDYWGQGTQVTVSS | low polyreactivity
QVQLVESGGGLVQEGGSLRLSCAASGSILGRYAMGWYRQAPGKERELVAAITSSGGRTYYADSVKGRFTISRDNAKNTVYLQMNSLKREDTAVYYCNAVSWWYGYDYWGQGTQVSVSS | high polyreactivity
QVQLVESGGGLVQEGGSLRLSCAASGSILIVYAMGWYRQATGKERELVAAITRGGRTNYADSVKGRFTISRDNAKNTVYLQMNSLKPEDTAVYYCAARVLPANVKPYNYWGQGTQVTVSS | high polyreactivity
QVQLVESGGGLVQEGGSLRLSCAASGSNFKRNTMGWYRQAPGKERELVAAISASGGRTYYADSVKGRFTISRDNAKNTVYLPMNSLKPEDTAVYYCNARFRIGRSELDYWGQGTQVTVSS | low polyreactivity
QVQLVESGGGLVQEGGSLRLSCAASGSTFGGYAMGWYRQAPGKERELVAAISGSGVRTYYADSVKGRFTISRDNAKYSVYLQMNSLKPEDTAVYYCAKRVRYPGDRYYYWGQGSQVTVSS | high polyreactivity
QVQLVESGGGLVQEGGSLRLSCAASGSTFIDYAMGWYRQAPGKERELVAAITNGGNTKYADSVKGRFTISRDNAKNTVYLQMHSLKPEETAVYYGAREPSIFTPSYDYWGQGTQVTVSS | low polyreactivity
QVQLVESGGGLVQEGGSLRLSCAASGSTFSYNAMGWYRQAPGKERELVAAITSGSSTNYADSVKGRFTISRDNAKNTVYLQMNSLKPEDTAVYYCAADGYQDKYYWLETWVGYWGQGTQVTVSS | low polyreactivity
QVQLVESGGGLVQEGGSLRLSCAASGSTFVINAMGWYRQAPGKERELVADIDYRGGSTNYSDSVKGRFTISRDNAKNTVYLQMNSLKPEVTAVYYCNKRYVIRRRGYDYWGQGTQVTVSS | low polyreactivity
QVQLVESGGGLVQEGGSLRLSCAAYGSTSYRYAMGWYRQAPGKERELVAASSSSGGSTYYADSVKGRFTISRDNEKNTVYLQMNSLKPEDSAVYYCAARFYSGPGGYTMYYWGQGTQVSVSS | high polyreactivity
QVQLVESGGGLVQEGGSLRLSCASSGSTFPRYVMGWYRKQTGTESELVAAISSSSGRTFYADSVKGRFTISRDNAKNTVYLQMNSLKPEDTAVYYCAARTSFNVHYWGQGTQVTVSS | high polyreactivity
QVQLVESGGGLVQEGGSLRLSCDASGLILLPYARGWYRQAPGKERELVAAISCSGGSTYYADSVKGRFTISRDNAKNTVYLQMNSLKPEVTAVYYCPARPNRQGFYYWGQGTQVTVSS | high polyreactivity
QVQLVESGGGLVQEGGSLRLTCAASGRTFTVNAMGWYRQAPGKERELVARISYGGARTYYADSVKGRFTISRDNAKNTVYLQMNSLKPEDTAVYYCAAPGPRKYEYDYWGQGTQVTVSS | high polyreactivity
